Measured values: patent US10023882B1, “Hetero-oligomers of (S)-carbonyl reductases and their applications in catalyzing reduction of polyphenyl ketones” (Jiangnan University, priority 2017, dated 2018)
Entries after “also recorded” stand apart in the source; their conditions may differ.

What was measured:
[1] = target: T1, His-SCR3, (S)-carbonyl reductase SCR3 of Candida parapsilosis with N-terminal His-tag, expressed from pET28-His-SCR3
T1 chain: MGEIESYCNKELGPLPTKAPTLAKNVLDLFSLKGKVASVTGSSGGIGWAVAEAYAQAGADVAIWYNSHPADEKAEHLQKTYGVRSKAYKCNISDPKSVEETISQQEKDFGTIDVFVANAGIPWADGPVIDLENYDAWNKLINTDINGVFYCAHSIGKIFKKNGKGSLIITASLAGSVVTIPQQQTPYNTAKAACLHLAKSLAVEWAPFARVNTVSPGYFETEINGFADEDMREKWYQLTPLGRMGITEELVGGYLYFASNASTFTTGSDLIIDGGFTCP

[2] = Reductive activity assay towards 2,4-dichlorobenzophenone (NADPH oxidation, absorbance at 340 nm); type: biochemical; conditions: purified enzyme, 0.5 mM NADPH, 1 mM substrate, 30° C.
Procedure: (§1) (1) Principle and definition: The enzyme activity for the reduction of prochiral ketones to chiral alcohols by homo-oligomers was determined with purified enzymes by measuring the decrease in absorbance at 340 nm resulting from the oxidation of NADPH. Protein concentration was determined by Beyotime (Shanghai, China) using bovine serum albumin as a standard.
(§2) (2) Enzyme activity assay conditions (250 ul): 0.5 mmol·L^−1 NADPH, 1 mmol·L^−1 substrate (2,4-dichlorobenzophenone, 2-naphthyl ketone, or [(E)-2-[3-[3-[2-(7-chloro-2-quinolinyl)ethenyl]phenyl]-3-oxopropyl]benzoic acid methyl ester (Keto Easter M).). Incubate the mixture at 30° C. for 2 min, then add appropriate amount of enzyme, and finally measure the absorbance at 340 nm wavelength.
(§3) Formula for calculating enzyme activity is: Enzyme activity (U)=EW×V×10^3/(6220×0.15), and formula for calculating relative enzyme activity is: relative enzyme activity (U/mg)=enzyme activity (U)/protein content (mg), wherein EW is the measured change of absorbance at 340 nm in 1 min; V is the reaction volume (mL); the molar absorption coefficient (L mol^−1 cm^−1) is 6220; and the optical length is 0.15 cm.
(§4) One unit of the enzyme activity is defined as the amount of enzyme catalyzing the formation and oxidation of 1 μmol of NAD(P)H per minute under measurement conditions.
(§5) Enzyme activity assay system (250 ul) contained 0.5 mM NADPH, 1 mM substrate (i.e. 2,4-dichlorobenzophenone) and appropriate amount of enzyme. The reaction mixture was incubated at 30° C. for 2 min, the appropriate amount of enzyme was added, and finally the absorption change was scanned at 340 nm wavelength. The calculated relative enzyme activity of SCR/SCR2 and SCR2/SCR3 were 4.55 U/mg and 4.42 U/mg towards 2,4-dichlorobenzophenone, respectively.

[3] = Reductive activity assay towards 2-acetonaphthone (NADPH oxidation, absorbance at 340 nm); type: biochemical; conditions: purified enzyme, 0.5 mM NADPH, 1 mM substrate, 30° C.
Procedure: as §1, §2, §3, §4
as §5, with “2-acetonaphthone)” for “2,4-dichlorobenzophenone)”, “was 2.43” for “and SCR2/SCR3 were 4.55 U/mg and 4.42”, “2-acetonaphthone.” for “2,4-dichlorobenzophenone, respectively.”

[4] = Reductive activity assay towards Keto Easter M (NADPH oxidation, absorbance at 340 nm); type: biochemical; conditions: purified enzyme, 0.5 mM NADPH, 1 mM substrate, 30° C.
Procedure: as §1, §2, §3, §4
as §5, with “[(E)-2-[3-[3-[2-(7-chloro-2-quinolinyl)ethenyl]phenyl]-3-oxopropyl]benzoic acid methyl ester (Keto Easter M)” for “2,4-dichlorobenzophenone)”, “0.86” for “4.55”, “1.21” for “4.42”, “[(E)-2-[3-[3-[2-(7-chloro-2-quinolinyl)ethenyl]phenyl]-3-oxopropyl]benzoic acid methyl ester (Keto Easter M),” for “2,4-dichlorobenzophenone,”

[5] = target: T2, His-SCR2, (S)-carbonyl reductase SCR2 of Candida parapsilosis with N-terminal His-tag, expressed from pET28-His-SCR2
T2 chain: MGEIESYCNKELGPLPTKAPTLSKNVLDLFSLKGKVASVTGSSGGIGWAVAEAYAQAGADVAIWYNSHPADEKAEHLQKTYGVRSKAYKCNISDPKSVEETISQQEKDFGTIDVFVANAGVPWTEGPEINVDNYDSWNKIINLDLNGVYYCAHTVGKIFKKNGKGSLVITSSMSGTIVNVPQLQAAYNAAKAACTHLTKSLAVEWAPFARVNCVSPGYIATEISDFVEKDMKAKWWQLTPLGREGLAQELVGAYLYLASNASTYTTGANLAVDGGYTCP

[6] = target: T3, SCR3, (S)-carbonyl reductase of Candida parapsilosis, as in the hetero-oligomer SCR/SCR3
T3 chain: T1 chain

[7] = target: T4, SCR3, (S)-carbonyl reductase of Candida parapsilosis, as in the hetero-oligomer SCR/SCR3 (Candida parapsilosis, UniProt G8BHG5 1-279); experiment: method not described for this pair
T4 sequence: T1 chain

B1: Strep-SCR2, (S)-carbonyl reductase SCR2 of Candida parapsilosis with N-terminal Strep-tag, expressed from pET21-Strep-SCR2 (protein)
chain: T2 chain
[1]
  relative enzyme activity towards 2,4-dichlorobenzophenone: 4.42 U/mg
  relative enzyme activity towards [(E)-2-[3-[3-[2-(7-chloro-2-quinolinyl)ethenyl]phenyl]-3-oxopropyl]benzoic acid methyl ester (Keto Easter M): 1.21 U/mg
[2]
  relative enzyme activity (specific activity) towards 2,4-dichlorobenzophenone: no specific activity is observed; also recorded: no enzyme activities were detected
[3]
  relative enzyme activity (specific activity) towards 2-acetonaphthone: no specific activity is observed; also recorded: no enzyme activities were detected
[4]
  relative enzyme activity (specific activity) towards Keto Easter M: no specific activity is observed; also recorded: no enzyme activities were detected

B2: Strep-SCR, (S)-carbonyl reductase SCR of Candida parapsilosis with N-terminal Strep-tag, expressed from pET21-Strep-SCR (protein)
chain: MGEIESYCNKELGPLPTKAPTLSKNVLDLFSLKGKVASVTGSSGGIGWAVAEAYAQAGADVAIWYNSHPADEKAEHLQKTYGVHSKAYKCNISDPKSVEETISQQEKDFGTIDVFVANAGVTWTQGPEIDVDNYDSWNKIISVDLNGVYYCSHNIGKIFKKNGKGSLIITSSISGKIVNIPQLQAPYNTAKAACTHLAKSLAIEWAPFARVNTISPGYIDTDITDFASKDMKAKWWQLTPLGREGLTQELVGGYLYLASNASTFTTGSDVVIDGGYTCP
[5]
  relative enzyme activity towards 2,4-dichlorobenzophenone: 4.55 U/mg
  relative enzyme activity towards 2-acetonaphthone: 2.43 U/mg
  relative enzyme activity towards [(E)-2-[3-[3-[2-(7-chloro-2-quinolinyl)ethenyl]phenyl]-3-oxopropyl]benzoic acid methyl ester (Keto Easter M): 0.86 U/mg

B3: SCR: homo-oligomer (S)-carbonyl reductase from Candida parapsilosis, amino acid sequence SEQ ID NO: 1 (protein, listed as Candida parapsilosis)
chain: B2 chain
[2]
  relative enzyme activity (specific activity) towards 2,4-dichlorobenzophenone: no specific activity is observed; also recorded: no enzyme activities were detected
[3]
  relative enzyme activity (specific activity) towards 2-acetonaphthone: no specific activity is observed; also recorded: no enzyme activities were detected
[4]
  relative enzyme activity (specific activity) towards Keto Easter M: no specific activity is observed; also recorded: no enzyme activities were detected

B4: SCR, (S)-carbonyl reductase of Candida parapsilosis, as in the hetero-oligomer SCR/SCR3 (enzyme)
chain: B2 chain
[6]
  activities to polyphenyl ketones: also showed some activities to polyphenyl ketones
[7]
  binding result: binds

B5: SCR3: homo-oligomer (S)-carbonyl reductase from Candida parapsilosis, amino acid sequence SEQ ID NO: 3 (protein, listed as Candida parapsilosis)
chain: T1 chain
[2]
  relative enzyme activity (specific activity) towards 2,4-dichlorobenzophenone: no specific activity is observed; also recorded: no enzyme activities were detected
[3]
  relative enzyme activity (specific activity) towards 2-acetonaphthone: no specific activity is observed; also recorded: no enzyme activities were detected
[4]
  relative enzyme activity (specific activity) towards Keto Easter M: no specific activity is observed; also recorded: no enzyme activities were detected
